Target: T1, HLA-A*0201 (Homo sapiens, UniProt P04439, D140Y/D185E/D98H/E176V/E277Q/G131W/G231S/I119V/I121R/I166T/I218V/L300P/L318F/N151K/N90K/P208A/P217A/Q86G/Q94H/R138H/R169H/T345S)
T1 construct: rescue cell-surface expression of CMH-I molecule HLA-A2 in the TAP peptide transporter-deficient cell line T2; endogenous in cells; host or cells: T2 cells (TAP-deficient)
Assay: T2 peptide binding assay
Assay type: cell-based
Conditions: for dose-response of MHC class I (HLA-A2) expression at the surface of T2 cells: 30, 100, 200 μg/ml; for A2 binding / Peak fluorescence, % of the levels obtained with NS3 1406-1415 / initial screening of the overlapping peptide panel for HLA-A*0201 expression at the cell surface: T2 cells; for A2 binding: dose-dependent increase of HLA-A2 surface expression; for Peak fluorescence, % of the levels obtained with NS3 1406-1415: MHC class I staining with W6/32; for initial screening of the overlapping peptide panel for HLA-A*0201 expression at the cell surface: 200 μg/ml
Procedure: 37 overlapping peptides (15 amino acid residues with […]) derived from F protein and 5 additional 15-mer peptides corresponding to alternative N-terminal frameshift products of the core protein sequence were synthesized using Fmoc chemistry (SynPep, Dublin, Calif.) based on the sequence of HCV-1a F protein (GenBank accession n° M62321), and were resolubilized in 25% w/v dimethyl sulfoxyde (DMSO) in 1×HBSS. Peptides were diluted to 30, 100, and 200 μg/ml final concentration in DMEM supplemented with 3% w/v FBS, and were incubated with 100,000 serum-depleted (3% FBS for 24 h) T2 cells for 16 h at 37° C. in 5% CO2. T2 cells were then stained (30 min at room temperature) for MHC class I molecules using fluorescein isothiocyanate (FITC)-conjugated W6/32 monoclonal antibody (Sigma, Saint Louis, Mo.) and were analyzed on a FACSCalibur™ flow cytometer (Becton-Dickinson Immunocytometry Systems, La Jolla, Calif.) with live gating based on forward and side scatter.
Interaction of antigenic peptides with class I major histocompatibility complex (MHC) molecules is a prerequisite for their recognition by host cytotoxic T lymphocytes (CTL). The T2 binding assay was therefore performed, in which exogenously-supplied peptides are assessed for their ability to rescue cell-surface expression of CMH-I molecule HLA-A2 in the TAP peptide transporter-deficient cell line T2 [25].
Forty-two overlapping 15-mer peptides corresponding to HCV-1a F protein sequence were tested for interaction with HLA-A*0201 molecules using the T2 peptide binding assay. Specifically, thirty-seven overlapping peptides (15 amino acid residues with 11 residues overlaps) derived from F protein and 5 additional 15-mer peptides corresponding to alternative N-terminal frameshift products of the core protein sequence were synthesized using Fmoc chemistry based on the sequence of HCV-1a ARFP (GenBank accession n° M62321), and peptide binding was assessed as described in Example 1. […] Mean fluorescence intensity following class I MHC staining by the W6/32 monoclonal antibody was used as the readout. The threshold level was set using no peptide controls (hatched lines in FIGS. 4 and 5).

## AGAPQTPGV (Hepatitis C virus) [F107-115]
  dose-response of MHC class I (HLA-A2) expression at the surface of T2 cells: dose-dependent capacity to rescue A2 expression
  A2 binding: +

## ALGLAGAPQT (Hepatitis C virus) [F103-112]
  dose-response of MHC class I (HLA-A2) expression at the surface of T2 cells: unable to rescue HLA-A2 expression

## CCRAGALDWVCARRE (Hepatitis C virus) [F37-51]
  dose-response of MHC class I (HLA-A2) expression at the surface of T2 cells: dose-dependent increase
  Peak fluorescence, % of the levels obtained with NS3 1406-1415: 79.2%
  initial screening of the overlapping peptide panel for HLA-A*0201 expression at the cell surface: high binders
  A2 binding: +

## KLVALGINAV [NS3 1406, reference compound]
  A2 binding: +

## PVALGLAGAPQTPGV (Hepatitis C virus) [F101-115]
  dose-response of MHC class I (HLA-A2) expression at the surface of T2 cells: dose-dependent increase
  Peak fluorescence, % of the levels obtained with NS3 1406-1415: 83.2%
  initial screening of the overlapping peptide panel for HLA-A*0201 expression at the cell surface: high binders
  A2 binding: +

## SLVEFTCCRA (Hepatitis C virus) [F31-40]
  dose-response of MHC class I (HLA-A2) expression at the surface of T2 cells: dose-dependent increase
  A2 binding: +

## VRSLVEFTCCRAGAL (Hepatitis C virus) [F29-43, 15-mer of HCV-1a F protein]
  dose-response of MHC class I (HLA-A2) expression at the surface of T2 cells: dose-dependent increase
  Peak fluorescence, % of the levels obtained with NS3 1406-1415: 87.6%
  initial screening of the overlapping peptide panel for HLA-A*0201 expression at the cell surface: high binders
  A2 binding: +
